Article PMC6947424, “New Targeted Gold Nanorods for the Treatment of Glioblastoma by Photodynamic Therapy” (Journal of Clinical Medicine, 2019)
“And” between values parts separate entries of the source, which are not always exact repeats. Equal entries are not always repeated. Residues, ends and D or L forms follow the SMILES beside them. *: point of attachment. Pyropheophorbide(a) = C=Cc1c(C)c2cc3nc(c4c5[nH]c(cc6nc(cc1[nH]2)C(C)=C6CC)c(C)c5C(=O)C4)[C@@H](CCC(=O)*)[C@@H]3C; Hexanoyl(6-maleimido) = O=C1C=CC(=O)N1CCCCCC(=O)*

Key:
[1] = UV-vis absorption; assay type: physicochemical; settings: ethanol, Soret band
Description: (§1) The setup and the protocol to evaluate the photophysical characterizations including the absorption, fluorescence, and singlet oxygen emission spectra in addition to the fluorescence and singlet oxygen lifetimes have been previously described by our team. The absorption spectra were recorded on a UV-3600 UV–vis double beam spectrophotometer (Shimadzu, Marne La Vallée, France) in the wavelength range of 200-800 nm. The measurements were performed on the molecules dispersed in ethanol in quartz cuvettes with an optical path of 10 mm. The fluorescence spectra were recorded on a Horiba Jobin Yvon Fluorolog-3 (FL3-222) spectrofluorimeter equipped with a 450W xenon lamp, a thermostated cell compartment (25 °C), a R928 (Hamamatsu, Massy, France) UV–vis photomultiplier and a liquid nitrogen cooled InGaAs infrared detector (DSS-16A020L Electro-Optical System Inc., Phoenixville, PA, USA). The excitation spectrometer used is a SPEX double grating monochromator (1200 grooves per mm blazed at 330 nm). The fluorescence was measured using the UV–vis detector through a SPEX double grating monochromator (600 grooves per mm blazed at 500 nm). The singlet oxygen production was measured using the IR detector through a SPEX double grating monochromator (600 grooves per mm blazed at 1 μm).
The photophysical properties at the different synthetic stages of the hybrid AuNRs@PEG-MI-K(Pyro)DKPPR-OH, including the peptide derivatives as intermediates, were studied and compared to that of free Pyro. These properties include the UV-vis absorption, the florescence emission (quantum yield (Φf) and lifetime (τf)) and the ^1O2 production (quantum yield (ΦΔ) and lifetime (τΔ)). To determine these properties, the optical density (OD) of the Soret band of the Pyro component (412 nm) was adjusted at about 0.2. Controls, such as TPP dissolved in toluene, as a standard for fluorescence emission, and RB dissolved in ethanol, as a standard for ^1O2 production, were used. Ethanol was chosen to dissolve the studied molecules since it is a convenient solvent for the detection of fluorescence and ^1O2 emission. […]

[2] = Singlet oxygen production (quantum yield and lifetime); assay type: physicochemical; settings: ethanol; for ΦΔ (singlet oxygen quantum yield): excitation 412 nm, detection 1270 nm, Rose Bengal as reference
Description: as §1
Fluorescence quantum yields (Φf) were determined using a tetraphenyl porphyrin (TPP) solution as the fluorescence standard (Φf = 0.11 in toluene, taking into account solvent refractive index and absorption efficiencies. For the direct determination of ^1O2 quantum yield (ΦΔ), excitation was performed with a Xe-arc, the light was separated in a SPEX 1680, 0.22 µm double monochromator. Detection at 1270 nm was carried out through a PTI S/N 1565 monochromator and the emission was monitored by a liquid nitrogen cooled Ge-detector (EO-817L, North Coast Scientific Co, OH, USA). Rose Bengal (RB) was chosen as a reference solution because of its high ^1O2 quantum yield in EtOH (ΦΔ = 0.68). The absorbance value at the excitation wavelengths (412 nm) of both the reference and the sample solutions were set to approximately 0.2 by dilution. The samples were all prepared in ethanol.
The quantum yield of singlet oxygen production is determined by the equation (2):(2) ΦΔ=ΦΔ0×I/I0×[…] where ΦΔ and ΦΔ0, I and I0, DO and DO0 are the luminescence quantum yields of singlet oxygen, the luminescence intensities and the optical densities of the sample and reference, respectively.
Fluorescence lifetimes were measured by Time-Correlated Single Photon Counting (TCSPC) using for excitation a pulsed laser diode LDH-P-C-405 coupled with a PDL 800-D driver (both from PicoQuant GmbH, Berlin, Germany) emitting at 408 nm (FWHM < 70 ps, 1 MHz) and an SPCM-AQR-15 avalanche photodiode (EG & G, Vaudreuil, Canada) coupled with a 650 nm (±10 nm) interference long-wave pass filter as the detection system. The acquisition system was a PicoHarp 300 module with a PHR-800 four-channel router (both from PicoQuant GmbH, Berlin, Germany). Fluorescence decays were recorded using the single photon counting method (four optical faced quartz cells for pure products in ethanol). Data were collected, and up to 1000 counts were accumulated in the maximum channel and analyzed using Fluofit TCSPC software (PicoQuant GmbH, Berlin, Germany) based on iterative reconvolution using a Levensberg-Marquandt algorithm. Singlet oxygen lifetime measurements have been performed on a TEMPRO-01 spectrophotometer (Horiba Jobin Yvon, Palaiseau, France). The apparatus was composed of a pulsed diode excitation source SpectraLED-415 emitting at 415 nm, a cuvette compartment, a Seya–Namioka type emission monochromator (600–2000 nm), and an H10330-45 near-infrared photomultiplier tube with a thermoelectric cooler (Hamamatsu, Massy, France) as the detection system. The system was monitored by a single photon counting controller FluoroHub-B and the software DataStation and DAS6 (Horiba Jobin Yvon, Palaiseau, France). […]

| Structure (SMILES) | λmax [1] [nm] | τΔ (singlet oxygen lifetime) [2] [μs] | ΦΔ (singlet oxygen quantum yield) [2] |
| --- | --- | --- | --- |
| C=Cc1c(C)c2cc3nc(c4c5[nH]c(cc6nc(cc1[nH]2)C(C)=C6CC)c(C)c5C(=O)C4)[C@@H](CCC(=O)NCCCC[C@H](NC(=O)CCCCCN1C(=O)C=CC1=O)C(=O)N[C@@H](CC(=O)O)C(=O)N[C@@H](CCCCN)C(=O)N1CCC[C@H]1C(=O)N1CCC[C@H]1C(=O)N[C@@H](CCCNC(=N)N)C(=O)O)[C@@H]3C [MI-K(Pyro)DKPPR-OH] ({Hexanoyl(6-maleimido)}-K(Pyropheophorbide(a))DKPPR-OH) | 412 | 13 | 0.39 |
| C=Cc1c(C)c2cc3nc(c4c5[nH]c(cc6nc(cc1[nH]2)C(C)=C6CC)c(C)c5C(=O)C4)[C@@H](CCC(=O)O)[C@@H]3C [Pyro, pyropheophorbide-a, reference compound] | 412 | 14 | 0.5 and 0.51 |
